Data on eight substances can be found in publication PMC4705663.

The subject of data set [1] is LexA. Description: FRET. The conditions noted are these: LexA titration; S1/2 of nucleosome unwrapping, 75 mM NaCl; HI-FI FRET: 25 mM Tris pH 7.5, 200 mM NaCl, 0.01% NP40 and CHAPS; EMSA: 25 mM Tris-HCl pH 7.5, 150 mM NaCl, 5 mM DTT, +/-10% glycerol, RT 30 min; NMR: 25 mM …. Background: Mobility shift assays separate free from complexed probe on a gel.
For data set [2], the system named is BRPF1 PZP domain. Description: FRET. The note with it: with LexA fixed at its S1/2 (2 uM); HI-FI FRET: 25 mM Tris pH 7.5, 200 mM NaCl, 0.01% NP40 and CHAPS; EMSA: 25 mM Tris-HCl pH 7.5, 150 mM NaCl, 5 mM DTT, +/-10% glycerol, RT 30 min; NMR: 25 mM ….
The target of data set [3] is Oregon Green 488-labeled BRPF1 PZP domain (UniProt P55201). Description: FRET or BRET; HIFI-FRET titration; Atto647N-labeled mononucleosomes titrated against three concentrations of Oregon Green labeled PZP; 25 mM Tris 7.5, 200 mM NaCl, 0.01% NP40 and CHAPS; quadratic fit; apparent Kd. For orientation: Bioluminescence resonance energy transfer reports proximity on the nanometre scale.

Data set [4] concerns the target histone H3 tail H3 tail (Homo sapiens) (UniProt P68431). The note with it: cited from earlier work.
The target of data set [5] is NCP165, mononucleosome assembled with unlabeled Xenopus octamer on 165 bp 601 DNA (Xenopus). Nature of the data set: AUC; sedimentation velocity; unlabeled NCP165 incubated with increasing molar ratios of PZP overnight at 4°C; 20 mM Tris 7.5, 50 mM NaCl, 2 mM arginine; 20°C, 40 000 rpm; free components also run alone.
The test system of data set [6] is BRPF1 PZP domain. Description: HI-FI FRET. The note with it: 200 mM NaCl, HI-FI FRET: 25 mM Tris pH 7.5, 200 mM NaCl, 0.01% NP40 and CHAPS, EMSA: 25 mM Tris-HCl pH 7.5, 150 mM NaCl, 5 mM DTT, +/-10% glycerol, RT 30 min, NMR: 25 mM ….
In data set [7] the target is Atto647N-labeled NCP165 (Xenopus octamer labeled at H4E63C, 165 bp 601 DNA) (Xenopus). Nature of the data set: FRET or BRET; HIFI-FRET Job plot (continuous variation); Oregon Green 488-PZP donor and Atto647N-NCP165 acceptor; total concentration of reactants constant at 1 μM, 50 nM steps.

As to 601L Cy3-Cy5 NCP with LexA site, the K half in data set [1] came to 2000 nM; in data set [2], 4 µM.
With “Atto647N-labeled NCP147 (Xenopus octamer labeled at H4E63C, 147 bp 601 DNA) (complex)”, the Kd in data set [3] was over 1 µM.
The same measure, in the same setting: as for “Atto647N-labeled NCP165 (Xenopus octamer labeled at H4E63C, 165 bp 601 DNA) (complex)”, the figure is 0.273 µM.
For the substance BRPF1 PZP PZP (from UniProt P55201), in data set [4], the Kd is 12 µM.
In the case of “BRPF1 PZP domain (amino acids 267–454) (from UniProt P55201 267-454) (domain or fragment)”, the stoichiometry N in data set [5] is 2.
As to NCP147 (FRET), the Kd in data set [6] (apparent, curve did not plateau) was over 1 µM.
NCP165: in data set [6] (apparent Kd), the Kd came to 0.273 µM.
The substance “Oregon Green 488-labeled BRPF1 PZP domain (from UniProt P55201 267-454) (domain or fragment)” came in with a stoichiometry N in data set [7] of 1.8.

The term stoichiometry N denotes the number of molecules, sites or subunits per partner or assembly.
